According to paper PMC13625576:
pKd: −log10 of the molar value.

Legend:
Experiment in all cases: SPR
[1] = molecular target: 14A Fab G32R mutant (mouse)
[2] = molecular target: 16A Fab W34F mutant (mouse)
[3] = molecular target: 16A Fab R32G mutant (mouse)

Ser-glycosylated MUC1 peptide RPAPGS(GalNAc)TAPPAHG
pKd [1]: 6.89
koff [1]: 0.0229 s⁻¹
kon [1]: 180000 M⁻¹ s⁻¹
pKd [2]: 5.41
koff [2]: 0.337 s⁻¹
kon [2]: 86200 M⁻¹ s⁻¹
pKd [3]: 6.77
koff [3]: 0.0294 s⁻¹
kon [3]: 174000 M⁻¹ s⁻¹

Thr-glycosylated MUC1 peptide RPAPGST(GalNAc)APPAHG
koff [1]: 0.00159 s⁻¹
kon [1]: 314000 M⁻¹ s⁻¹
pKd [2]: 5.91
koff [2]: 0.09 s⁻¹
kon [2]: 73600 M⁻¹ s⁻¹
pKd [3]: 7.64
koff [3]: 0.00823 s⁻¹
kon [3]: 359000 M⁻¹ s⁻¹

nonglycosylated MUC1 peptide …
pKd [1]: 6.91
koff [1]: 0.0233 s⁻¹
kon [1]: 191000 M⁻¹ s⁻¹
pKd [2]: 5.46
koff [2]: 0.295 s⁻¹
kon [2]: 86200 M⁻¹ s⁻¹
pKd [3]: 6.49
koff [3]: 0.0532 s⁻¹
kon [3]: 163000 M⁻¹ s⁻¹

doubly glycosylated MUC1 peptide RPAPGS(GalNAc)T(GalNAc)APPAHG
pKd [1]: 8.35
koff [1]: 0.00137 s⁻¹
kon [1]: 303000 M⁻¹ s⁻¹
pKd [2]: 5.95
koff [2]: 0.0901 s⁻¹
kon [2]: 79700 M⁻¹ s⁻¹
koff [3]: 0.00183 s⁻¹
kon [3]: 534000 M⁻¹ s⁻¹
